Data from article PMC4853763.

Biological target: E6/e6ap complex with the wt e6ap(1-16) peptide construct (HPV16 | human) (UniProt P03126)
Test: ITC

## p53 core (DNA binding) domain (from UniProt P04637 94-311) (domain or fragment)
  dH: -19.1 kcal/mol
  stoichiometry N: 0.516
